Sequences and labels used below:
B1: Sx4(1-275)-His (C-terminally His6-tagged Syntaxin4 C141S, residues 1-275) (domain or fragment, UniProt P70452 1-275, looked up)
chain: MRDRTHELRQGDNISDDEDEVRVALVVHSGAARLGSPDDEFFQKVQTIRQTMAKLESKVRELEKQQVTILATPLPEESMKQGLQNLREEIKQLGREVRAQLKAIEPQKEEADENYNSVNTRMKKTQHGVLSQQFVELINKSNSMQSEYREKNVERIRRQLKITNAGMVSDEELEQMLDSGQSEVFVSNILKDTQVTRQALNEISARHSEIQQLERSIRELHEIFTFLATEVEMQGEMINRIEKNILSSADYVERGQEHVKIALENQKKARKKKVM
notes: source: also in lysate for the co-purification; not shown: His6, C-terminal, kept

Assay [1] has as its target T1, HMunc18c (His6-tagged full-length mouse Munc18c from a codon-optimised synthetic gene in pQE30) (mouse, UniProt Q60770 1-592).
T1 construct: Monomer by SEC-MALS; also called pQE30-His6-Munc18c; bacterially expressed Munc18c; source: E. coli BL21, co-expressed with GroEL/GroES, purified (IMAC PrepEase, SEC, MonoS IEC); not shown: His6, N-terminal, kept
T1 sequence (looked up): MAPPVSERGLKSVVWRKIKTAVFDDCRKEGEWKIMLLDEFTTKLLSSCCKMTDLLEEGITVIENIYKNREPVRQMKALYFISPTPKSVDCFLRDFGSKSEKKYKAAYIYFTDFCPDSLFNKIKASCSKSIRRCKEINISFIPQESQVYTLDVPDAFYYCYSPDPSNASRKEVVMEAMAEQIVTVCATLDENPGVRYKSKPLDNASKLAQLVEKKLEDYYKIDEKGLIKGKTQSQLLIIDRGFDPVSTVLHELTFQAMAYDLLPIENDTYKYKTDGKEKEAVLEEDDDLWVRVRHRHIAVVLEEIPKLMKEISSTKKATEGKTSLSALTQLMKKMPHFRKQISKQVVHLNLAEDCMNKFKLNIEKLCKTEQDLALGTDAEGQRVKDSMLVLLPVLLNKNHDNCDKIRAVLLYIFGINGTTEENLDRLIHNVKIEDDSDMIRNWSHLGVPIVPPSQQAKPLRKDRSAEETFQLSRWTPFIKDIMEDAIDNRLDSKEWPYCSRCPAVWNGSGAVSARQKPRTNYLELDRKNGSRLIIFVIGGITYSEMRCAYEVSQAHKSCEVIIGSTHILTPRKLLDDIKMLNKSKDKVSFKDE
Kind of assay: ITC; 298 K, iTC200; Sx4(1-275)-His 200-220 µM titrated into 20-30 µM HMunc18c in the cell; 25 mM HEPES pH 8, 200 mM NaCl, 10% glycerol, 2 mM β-ME; single site model; four replicates, mean ± SEM. The settings on record: both partners purified. In general terms: In ITC the heat of successive injections is recorded.

Assay [2] concerns the target B1. Kind of assay: pull-down + SEC; lysates of un-tagged Munc18c and Sx4(1-275)-His mixed 3:1 by volume, captured on TALON beads, eluted, Superdex 200 in 25 mM Tris-HCl pH 7.5, 300 mM NaCl, 10% glycerol; peak fractions on SDS-PAGE. The note with it: partners not purified.

Consider B1, for which, in assay [1], the dissociation constant (Kd) – broadly, the constant that tells how readily two partners part at equilibrium – is 104 nM; the dH is -11 kcal/mol; the stoichiometry N (commonly a count of units in the complex or per binding partner) was 0.97.

B2: Munc18c (un-tagged) (natural protein, mouse, UniProt Q60770 1-592, looked up)
chain: MAPPVSERGLKSVVWRKIKTAVFDDCRKEGEWKIMLLDEFTTKLLSSCCKMTDLLEEGITVIENIYKNREPVRQMKALYFISPTPKSVDCFLRDFGSKSEKKYKAAYIYFTDFCPDSLFNKIKASCSKSIRRCKEINISFIPQESQVYTLDVPDAFYYCYSPDPSNASRKEVVMEAMAEQIVTVCATLDENPGVRYKSKPLDNASKLAQLVEKKLEDYYKIDEKGLIKGKTQSQLLIIDRGFDPVSTVLHELTFQAMAYDLLPIENDTYKYKTDGKEKEAVLEEDDDLWVRVRHRHIAVVLEEIPKLMKEISSTKKATEGKTSLSALTQLMKKMPHFRKQISKQVVHLNLAEDCMNKFKLNIEKLCKTEQDLALGTDAEGQRVKDSMLVLLPVLLNKNHDNCDKIRAVLLYIFGINGTTEENLDRLIHNVKIEDDSDMIRNWSHLGVPIVPPSQQAKPLRKDRSAEETFQLSRWTPFIKDIMEDAIDNRLDSKEWPYCSRCPAVWNGSGAVSARQKPRTNYLELDRKNGSRLIIFVIGGITYSEMRCAYEVSQAHKSCEVIIGSTHILTPRKLLDDIKMLNKSKDKVSFKDE
notes: made from pQE30-HMunc18c by PCR that removes the His6 codons; A few vector-encoded residues may be left at the N-terminus (surmised); also called untagged Munc18c; un-tagged Munc18c
For the molecule B2, the “stoichiometry N” value in assay [2] was determined as 1.

These data come from publication PMC3877047 (PLoS ONE, 2013).
